This passage reports apparent GTPγS binding rate k of Gαi1 (intrinsic W211 tryptophan fluorescence, nucleotide exchange), Y2R in isotropic bicelles activated with 10 fold excess of NPY, 16°C and apparent GTPγS binding rate k of Gαi1 (intrinsic W211 tryptophan fluorescence, nucleotide exchange), Y2R in non-isotropic bicelles activated with 10 fold excess of NPY, 16°C results from paper PMC5776092.

For the experiment, the target named is cysteine deficient variant of the human neuropeptide Y receptor type 2 (Y2R), refolded and reconstituted into DMPC/DHPC-c7 bicelles (human) (UniProt P49146).

For the substance “pre-assembled Gαi1β1γ1 heterotrimer (from UniProt P10824 1-354; P62871 1-340; P02698 1-74) (complex)”, the apparent GTPγS binding rate k of Gαi1 (intrinsic W211 tryptophan fluorescence, nucleotide exchange), Y2R in isotropic bicelles activated with 10 fold excess of NPY, 16°C was determined as 0.06 s⁻¹ and the apparent GTPγS binding rate k of Gαi1 (intrinsic W211 tryptophan fluorescence, nucleotide exchange), Y2R in non-isotropic bicelles activated with 10 fold excess of NPY, 16°C amounted to 0.045 s⁻¹.
